As a reminder, the stoichiometry N is a count of units in the complex or per binding partner. Broadly, the Kd is the concentration at which binding is half-saturated. Low values mean tighter binding, high ones weaker binding.

Like-named read-outs stand apart in the source and are kept apart here.

Data set [1] deals with the molecule itself. Briefly: negative-stain electron microscopy.
The target of data set [2] is T1, SpoIIIE motor domain (SpoIIIE C-terminal) (Bacillus subtilis, UniProt P21458 177-787).
T1 sequence: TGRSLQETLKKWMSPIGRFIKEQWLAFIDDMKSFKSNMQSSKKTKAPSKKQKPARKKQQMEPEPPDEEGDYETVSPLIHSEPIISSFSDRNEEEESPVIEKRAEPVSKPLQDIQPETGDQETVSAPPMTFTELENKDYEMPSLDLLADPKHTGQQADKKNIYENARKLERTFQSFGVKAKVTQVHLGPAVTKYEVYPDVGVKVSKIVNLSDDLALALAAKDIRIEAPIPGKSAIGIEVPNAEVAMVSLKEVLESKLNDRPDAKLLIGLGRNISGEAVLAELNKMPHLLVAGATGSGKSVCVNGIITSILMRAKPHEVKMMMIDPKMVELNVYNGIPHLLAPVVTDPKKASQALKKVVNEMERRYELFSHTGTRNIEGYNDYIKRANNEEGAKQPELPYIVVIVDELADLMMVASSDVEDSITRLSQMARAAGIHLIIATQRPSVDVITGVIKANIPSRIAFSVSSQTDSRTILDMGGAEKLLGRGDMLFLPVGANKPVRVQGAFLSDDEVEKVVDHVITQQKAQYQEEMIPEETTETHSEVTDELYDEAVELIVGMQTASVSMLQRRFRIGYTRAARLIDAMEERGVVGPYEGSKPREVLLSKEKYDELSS
Briefly: fluorescence anisotropy. On the technique in general: In fluorescence polarisation assays a small probe gives low polarisation when free and higher when bound to something large.

Data set [3] has as its target T1, SpoIIIE motor domain (SpoIIIE …). In words: fluorescence anisotropy. The source holds these as a separate data set.
The target of data set [4] is T2, SpoIIIE467 (Walker A mutant) (Bacillus subtilis, UniProt P21458 177-787, G467S).
T2 sequence: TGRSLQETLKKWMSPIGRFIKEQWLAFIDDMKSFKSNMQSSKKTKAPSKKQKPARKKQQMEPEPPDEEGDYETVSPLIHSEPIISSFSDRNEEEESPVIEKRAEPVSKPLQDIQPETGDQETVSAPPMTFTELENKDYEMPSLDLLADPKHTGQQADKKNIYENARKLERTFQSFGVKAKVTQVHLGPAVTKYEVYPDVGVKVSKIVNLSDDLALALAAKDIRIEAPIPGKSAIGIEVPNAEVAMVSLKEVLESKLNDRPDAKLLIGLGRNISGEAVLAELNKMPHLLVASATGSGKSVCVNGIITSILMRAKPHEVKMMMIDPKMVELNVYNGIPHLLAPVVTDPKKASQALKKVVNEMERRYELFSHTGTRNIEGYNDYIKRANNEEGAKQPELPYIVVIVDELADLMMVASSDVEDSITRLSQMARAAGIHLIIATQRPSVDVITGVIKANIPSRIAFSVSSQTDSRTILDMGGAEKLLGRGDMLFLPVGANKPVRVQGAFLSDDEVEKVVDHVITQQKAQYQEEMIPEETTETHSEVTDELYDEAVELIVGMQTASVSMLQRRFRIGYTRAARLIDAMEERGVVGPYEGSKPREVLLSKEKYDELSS
In words: fluorescence anisotropy.

Data set [5] concerns the target T1, SpoIIIE motor domain (SpoIIIE …). Briefly: fluorescence anisotropy. This is another data set of the same source.

B1: SpoIIIE C-terminal motor domain (residues 177-787) with a C-terminal hexahistidine tag (domain or fragment, Bacillus subtilis, UniProt P21458 177-787, looked up)
chain: TGRSLQETLKKWMSPIGRFIKEQWLAFIDDMKSFKSNMQSSKKTKAPSKKQKPARKKQQMEPEPPDEEGDYETVSPLIHSEPIISSFSDRNEEEESPVIEKRAEPVSKPLQDIQPETGDQETVSAPPMTFTELENKDYEMPSLDLLADPKHTGQQADKKNIYENARKLERTFQSFGVKAKVTQVHLGPAVTKYEVYPDVGVKVSKIVNLSDDLALALAAKDIRIEAPIPGKSAIGIEVPNAEVAMVSLKEVLESKLNDRPDAKLLIGLGRNISGEAVLAELNKMPHLLVAGATGSGKSVCVNGIITSILMRAKPHEVKMMMIDPKMVELNVYNGIPHLLAPVVTDPKKASQALKKVVNEMERRYELFSHTGTRNIEGYNDYIKRANNEEGAKQPELPYIVVIVDELADLMMVASSDVEDSITRLSQMARAAGIHLIIATQRPSVDVITGVIKANIPSRIAFSVSSQTDSRTILDMGGAEKLLGRGDMLFLPVGANKPVRVQGAFLSDDEVEKVVDHVITQQKAQYQEEMIPEETTETHSEVTDELYDEAVELIVGMQTASVSMLQRRFRIGYTRAARLIDAMEERGVVGPYEGSKPREVLLSKEKYDELSS
Consider B1, for which the “stoichiometry N” value in data set [1] came out at 6.

B2: DNANS (43 bp, no SRS) (dsDNA)
DNA 1: GCGGAGGCGGGAGGCGGAGATCTTACCGCTGTTGAGATCCAGC
DNA 2: GCTGGATCTCAACAGCGGTAAGATCTCCGCCTCCCGCCTCCGC
For B2, the Kd worked out at 61 ± 11 nM in data set [2], 43 ± 9 nM in data set [3], 63 ± 3 nM in data set [4] and 60 ± 9 nM in data set [5].

For the origin of these results see publication PMC3936747 (Nucleic Acids Research, 2013).
